For test [1], the target named is human cathepsin B (recombinant) (human, UniProt P07858 80-333). The experiment in a line: western blot of recombinant cathepsins. Here is the method: (§1) FIG. 15 MAb1 specifically binds Cat S on western blot. The antibody was used to probe against human cathepsin B, L, S and K (100 ng each).
(§2) Western blots were performed as described before to show specificity of the antibody binding to Cat S and not to CatB, L or K. Briefly, 100 ng of recombinant Cat S, K, L and B were loaded onto a SDS-PAGE gel, then transferred onto Hybond-C Extra nitrocellulose membrane (Amersham. Biosciences). The membrane was blocked by incubation in PBS/5% marvel for 1 hr at room temperature, after which it was rinsed briefly in PBS. The monoclonal antibodies were used at a 1:500 dilution in PBS and incubated on the membrane overnight at 4° C. while gently rocking. The blot was then rinsed three times with PBS/1% marvel and 0.1% Tween-20 and then incubated with the goat anti-mouse HRP conjugated secondary antibody at a 1:3000 dilution for 1 hr at room temperature while shaking. The blot was then rinsed three times with the PBS/1% marvel and 0.1% Tween-20 solution, followed by a short rinse in PBS. The blot was incubated with ECL plus substrate (Amersham Biosciences) for 5 mins at room temperature before development using Kodak photographic film under safe light conditions (FIG. 15).
On the technique in general: Immunoblotting shows a protein as a band on a membrane.

Test [2] concerns the target T1, human cathepsin L (recombinant) (human, UniProt P07711 114-333, limits assumed).
T1 construct: Called 'purified CatL' in the activity assay; also called CatL; Cat L
The experiment in a line: western blot of recombinant cathepsins. Here is the method: as §1, §2

Test [3] deals with T2, human cathepsin K (recombinant) (human, UniProt P43235 115-329, limits assumed).
T2 construct: Called 'purified CatK' in the activity assay; also called CatK; Cat K
T2 sequence (looked up): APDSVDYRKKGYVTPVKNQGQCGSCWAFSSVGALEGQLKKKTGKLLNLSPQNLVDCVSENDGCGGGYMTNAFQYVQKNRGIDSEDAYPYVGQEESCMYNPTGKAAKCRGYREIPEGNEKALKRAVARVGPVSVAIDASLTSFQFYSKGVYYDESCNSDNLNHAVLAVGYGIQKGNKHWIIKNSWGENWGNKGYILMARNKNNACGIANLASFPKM
The experiment in a line: western blot of recombinant cathepsins. Here is the method:
as §1, §2

The target in test [4] is T3, recombinant human Cat S (Calbiochem) (human, UniProt P25774 115-331, limits assumed).
T3 construct: Bought enzyme used in the fluorimetric activity assays; also called cathepsin S
Briefly: fluorimetric enzyme assay with Cbz-Val-Val-Arg-AMC; progress curves of a slow-binding inhibitor fitted by non-linear regression (Morrison and Walsh, GraFit). On the procedure: FIG. 12. Quantification of inhibitory activity of Cat S MAb1 (Mab 1E11). Rates from the progress curves of (Mab 1E11) [FIG. 11], which were indicative of a slow binding inhibitor, were fitted by non-linear regression using GraFit software according to the method of Morrison and Walsh, 1988.
The inhibitory effect of the monoclonal antibodies were determined by a flurometric assay, using a Cat S synthetic substrate Z-Val-Val-Arg-AMC (Bachem) and recombinant human Cat S (Calbiochem). The recombinant Cat S enzyme was activated at 37° C. in sodium acetate buffer (100 mM sodium acetate, 1 mM EDTA, 0.1% Brij90, pH 5.5), and 2 mM dithiothreitol (DTT) for 30 mins prior to assay. Assays were carried out using 190 μl of sodium acetate/DTT buffer (90:1), 1 μl of activated Cat S, 12.5 μl of 10 mM Cbz-Val-Val-Arg-AMC substrate and 50 μl of non-purified monoclonal antibody supernatant. Fluorescence was measured at 375 nm excitation and 460 nm emission wavelengths every 5 mins for 4 hrs (FIG. 8). […]
The purified monoclonal antibodies were analysed by flurometric assay for quantification of their ability to inhibit the activity of Cat S. The principles of this assay are the same as that previously used. Fluorescence was measured at 375 nm excitation and 460 nm emission wavelengths every minute for 1 hr. […]

T3 sequence (P25774 115-331 limits assumed): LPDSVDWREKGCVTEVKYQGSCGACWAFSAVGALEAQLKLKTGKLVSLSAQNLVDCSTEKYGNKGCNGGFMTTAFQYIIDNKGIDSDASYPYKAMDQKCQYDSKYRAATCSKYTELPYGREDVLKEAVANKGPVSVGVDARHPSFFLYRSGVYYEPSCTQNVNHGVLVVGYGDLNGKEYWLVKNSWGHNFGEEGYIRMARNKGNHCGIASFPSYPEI
T1 sequence (P07711 114-333 limits assumed): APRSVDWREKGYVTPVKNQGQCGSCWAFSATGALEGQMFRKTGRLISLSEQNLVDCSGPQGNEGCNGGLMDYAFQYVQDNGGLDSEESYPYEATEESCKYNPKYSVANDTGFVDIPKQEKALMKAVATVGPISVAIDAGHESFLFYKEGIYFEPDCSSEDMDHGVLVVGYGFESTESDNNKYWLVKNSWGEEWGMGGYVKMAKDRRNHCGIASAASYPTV

B1: Cat S inhibitory monoclonal antibody Mab 1E11 (antibody, V domains shown)
VH: VQLQESGGVLVKPGGSLKLSCAASGFAFSSYDMSWVRQTPEKRLEWVAYITTGGVNTYYPDTVKGRFTISRDNAKNTLYLQMSSLKSEDTAMYYCARHSYFDYWGQGTTVTVSS
VL: DVLMTQTPLSLPVSLGDQASISCRSSQSLVHSNGNTYLHWYLQKPGQSPKLLIYKVSNRFSGVPDRFSGSGSGTDFTLKISRVEAEDLGVYFCSQTTHVPPTFGSGTKLEIKR
notes: Whole mouse monoclonal antibody from a hybridoma (BALB/C mice), purified from supernatant; also called Cat S MAb1
For orientation: Ki means the equilibrium dissociation constant of an inhibitor or competing ligand from its target. Take B1: the binding result in test [1], in test [2] and in test [3] was “no binding” in each case. Besides, the inhibitory constant (Ki) in test [4] turned out to be 533 nM.

The values are drawn from patent US20110243955A1 (FUSION ANTIBODIES, published 2011).
